{
  "source": "paper PMC10786891",
  "about": "“Massively parallel profiling of RNA-targeting CRISPR-Cas13d”",
  "binders": {"B1": {"name": "target 3 insG 3' of 5,insG 3' of 5 (mixed)", "RNA 1": "CACCCGUGCAAAAUUGCAGGGGUCUAAAACGACCUGAAUAUUUCAGAUCAAA", "RNA 2": "GGGAAUGGAUCCACAUCUACGAAUUCGUUUUUGAUCUGAAAUAUUCAGGGGUCUGCAGAUCGGAAGAGCACACGU"}, "B2": {"name": "target 3 insU 3' of 22,insC 3' of 5 (mixed)", "RNA 1": "B1 RNA 1", "RNA 2": "GGGAAUGGAUCCACAUCUACGAAUUCGUUUUUUGAUCUGAAAUAUUCACGGUCUGCAGAUCGGAAGAGCACACGU"}, "B3": {"name": "target 3 insG 3' of 6,insA 3' of 2 (mixed)", "RNA 1": "B1 RNA 1", "RNA 2": "B1 RNA 2 with A47G, G48A, G51U, U52A"}, "B4": {"name": "target 3 insA 3' of 8,insG 3' of 2 (mixed)", "RNA 1": "B1 RNA 1", "RNA 2": "B1 RNA 2 with U45A, C46U, A47C, G48A, G51U, U52G"}, "B5": {"name": "target 3 insG 3' of 9,insC 3' of 5 (mixed)", "RNA 1": "B1 RNA 1", "RNA 2": "B1 RNA 2 with U44G, C46U, A47C, G48A, G49C"}, "B6": {"name": "target 3 G3U,C6G (mixed)", "RNA 1": "B1 RNA 1", "RNA 2": "GGGAAUGGAUCCACAUCUACGAAUUCGUUUUUGAUCUGAAAUAUUGAGUUCUGCAGAUCGGAAGAGCACACGU"}, "B7": {"name": "target 3 insC 3' of 12,insA 3' of 2 (mixed)", "RNA 1": "B1 RNA 1", "RNA 2": "B1 RNA 2 with A41C, U42A, A43U, U44A, C46U, A47C, G48A, G51U, U52A"}, "B8": {"name": "target 3 G4A,A5C (mixed)", "RNA 1": "B1 RNA 1", "RNA 2": "B6 RNA 2 with G46C, A47C, G48A, U49G"}, "B9": {"name": "target 3 insC 3' of 11,insC 3' of 5 (mixed)", "RNA 1": "B1 RNA 1", "RNA 2": "B1 RNA 2 with U42C, A43U, U44A, C46U, A47C, G48A, G49C"}, "B10": {"name": "target 3 U7A,U8C (mixed)", "RNA 1": "B1 RNA 1", "RNA 2": "B6 RNA 2 with U44C, U45A, G46C, U49G"}, "B11": {"name": "target 3 G3A,U7A (mixed)", "RNA 1": "B1 RNA 1", "RNA 2": "B6 RNA 2 with U45A, G46C, U49A"}, "B12": {"name": "target 3 insC 3' of 3,insC 3' of 3 (mixed)", "RNA 1": "B1 RNA 1", "RNA 2": "B1 RNA 2 with G50C, G51C"}, "B13": {"name": "target 3 insC 3' of 4 (mixed)", "RNA 1": "B1 RNA 1", "RNA 2": "GGGAAUGGAUCCACAUCUACGAAUUCGUUUUUGAUCUGAAAUAUUCAGCGUCUGCAGAUCGGAAGAGCACACGU"}, "B14": {"name": "target 3 insG 3' of 7,insA 3' of 4 (mixed)", "RNA 1": "B1 RNA 1", "RNA 2": "B1 RNA 2 with C46G, A47C, G48A, G50A"}, "B15": {"name": "target 3 G4A,A12U (mixed)", "RNA 1": "B1 RNA 1", "RNA 2": "B6 RNA 2 with A40U, G46C, G48A, U49G"}, "B16": {"name": "target 3 insA 3' of 8,insU 3' of 6 (mixed)", "RNA 1": "B1 RNA 1", "RNA 2": "B1 RNA 2 with U45A, C46U, A47C, G48U, G49A"}, "B17": {"name": "target 3 U2G,C16U (mixed)", "RNA 1": "B1 RNA 1", "RNA 2": "B6 RNA 2 with C36U, G46C, U49G, U50G"}, "B18": {"name": "target 3 U2G,U22G (mixed)", "RNA 1": "B1 RNA 1", "RNA 2": "B6 RNA 2 with U30G, G46C, U49G, U50G"}, "B19": {"name": "target 3 insC 3' of 2,insG 3' of 1 (mixed)", "RNA 1": "B1 RNA 1", "RNA 2": "B1 RNA 2 with G50U, G51C, U52C, C53G"}, "B20": {"name": "target 3 A5G,U7A (mixed)", "RNA 1": "B1 RNA 1", "RNA 2": "B6 RNA 2 with U45A, G46C, A47G, U49G"}, "B21": {"name": "target 3 insA 3' of 10,insC 3' of 5 (mixed)", "RNA 1": "B1 RNA 1", "RNA 2": "B1 RNA 2 with U44A, C46U, A47C, G48A, G49C"}, "B22": {"name": "target 3 G3C,U8G (mixed)", "RNA 1": "B1 RNA 1", "RNA 2": "B6 RNA 2 with U44G, G46C, U49C"}, "B23": {"name": "target 3 C6A,A18G (mixed)", "RNA 1": "B1 RNA 1", "RNA 2": "B6 RNA 2 with A34G, G46A, U49G"}, "B24": {"name": "target 3 insA 3' of 22,insA 3' of 22 (mixed)", "RNA 1": "B1 RNA 1", "RNA 2": "GGGAAUGGAUCCACAUCUACGAAUUCGUUUAAUUGAUCUGAAAUAUUCAGGUCUGCAGAUCGGAAGAGCACACGU"}, "B25": {"name": "target 3 insU 3' of 22,insA 3' of 7 (mixed)", "RNA 1": "B1 RNA 1", "RNA 2": "B2 RNA 2 with C47A, A48C, C49A"}, "B26": {"name": "target 3 U2G,G3U (mixed)", "RNA 1": "B1 RNA 1", "RNA 2": "B6 RNA 2 with G46C, U50G"}, "B27": {"name": "target 3 U2G,A9G (mixed)", "RNA 1": "B1 RNA 1", "RNA 2": "B6 RNA 2 with A43G, G46C, U49G, U50G"}, "B28": {"name": "target 3 insG 3' of 6,insU 3' of 3 (mixed)", "RNA 1": "B1 RNA 1", "RNA 2": "B1 RNA 2 with A47G, G48A, G51U"}, "B29": {"name": "target 3 insA 3' of 10,insU 3' of 4 (mixed)", "RNA 1": "B1 RNA 1", "RNA 2": "B1 RNA 2 with U44A, C46U, A47C, G48A, G50U"}, "B30": {"name": "target 3 insG 3' of 8,insA 3' of 6 (mixed)", "RNA 1": "B1 RNA 1", "RNA 2": "B1 RNA 2 with U45G, C46U, A47C, G48A, G49A"}, "B31": {"name": "target 1 complement block 4-13 (mixed)", "RNA 1": "CACCCGUGCAAAAAUGCAGGGGUCUAAAACUGAGCGGAUAACCUCUCUAUGG", "RNA 2": "GGGAAUGGAUCCACAUCUACGAAUUCGUACCAUAGAGACCAAUAGGCGUCACCGAGAUCGGAAGAGCACACGU"}, "B32": {"name": "target 1 insU 3' of 12,insG 3' of 3 (mixed)", "RNA 1": "B31 RNA 1", "RNA 2": "GGGAAUGGAUCCACAUCUACGAAUUCGUACCAUAGAGAGGUUUAUCCGCUGCACCGAGAUCGGAAGAGCACACGU"}, "B33": {"name": "target 1 insA 3' of 21,insC 3' of 18 (mixed)", "RNA 1": "B31 RNA 1", "RNA 2": "GGGAAUGGAUCCACAUCUACGAAUUCGUACCAAUACGAGAGGUUAUCCGCUCACCGAGAUCGGAAGAGCACACGU"}},
  "note": "Where a chain is given by its changes, count along the chain named. Numbers in names are those of the source.",
  "data": [
    {"biological_target": "T1, EsCas13d, nuclease-dead (Eubacterium siraeum, UniProt B0MS50, R295A;H300A;R849A;H854A)", "T1 sequence": "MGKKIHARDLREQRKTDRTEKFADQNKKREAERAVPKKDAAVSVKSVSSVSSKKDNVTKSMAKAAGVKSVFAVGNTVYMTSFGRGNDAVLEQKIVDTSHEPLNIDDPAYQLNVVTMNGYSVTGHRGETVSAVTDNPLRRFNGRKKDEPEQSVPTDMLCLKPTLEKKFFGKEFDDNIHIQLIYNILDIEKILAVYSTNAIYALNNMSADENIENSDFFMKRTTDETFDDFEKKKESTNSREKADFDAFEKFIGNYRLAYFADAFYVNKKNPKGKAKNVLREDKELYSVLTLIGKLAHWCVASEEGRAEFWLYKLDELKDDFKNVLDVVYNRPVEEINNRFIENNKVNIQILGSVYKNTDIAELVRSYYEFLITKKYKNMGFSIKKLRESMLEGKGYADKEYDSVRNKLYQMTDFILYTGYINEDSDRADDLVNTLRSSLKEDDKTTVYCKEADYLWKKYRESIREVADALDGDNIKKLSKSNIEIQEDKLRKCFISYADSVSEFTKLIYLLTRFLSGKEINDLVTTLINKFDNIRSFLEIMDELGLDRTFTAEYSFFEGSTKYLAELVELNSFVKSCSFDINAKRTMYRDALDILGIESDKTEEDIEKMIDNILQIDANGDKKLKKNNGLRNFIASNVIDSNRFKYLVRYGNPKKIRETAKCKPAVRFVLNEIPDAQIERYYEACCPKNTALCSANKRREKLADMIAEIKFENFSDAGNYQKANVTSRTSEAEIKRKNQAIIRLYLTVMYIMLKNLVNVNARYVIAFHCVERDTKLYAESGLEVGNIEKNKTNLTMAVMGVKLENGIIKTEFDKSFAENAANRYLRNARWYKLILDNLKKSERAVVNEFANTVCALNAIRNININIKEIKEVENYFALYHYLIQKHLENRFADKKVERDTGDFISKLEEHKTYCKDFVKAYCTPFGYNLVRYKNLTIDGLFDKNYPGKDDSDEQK", "test": "crRNA (strand 1, pre-loaded); Mg2+; 40 mM Tris-HCl pH 7.5, 150 mM NaCl, 6 mM MgCl2, 1 mM DTT, 0.1% Tween-20, 0.2 mg/ml BSA; 25 C; 10 min per concentration, then washed", "conditions": "tags: His6-TwinStrep-SUMO cleaved; N-terminal SNAP kept (SNAP-Surface 488); label: 3' end held by stalled T7 RNA polymerase", "units": {"Kd": "nM"}, "values": [
      {"binder": "B1", "Kd": "25.3 ± 5.25"},
      {"binder": "B2", "Kd": "24.1 ± 2.9"},
      {"binder": "B3", "Kd": "15.6 ± 1.85"},
      {"binder": "B4", "Kd": "36.5 ± 8.5"},
      {"binder": "B5", "Kd": "80.5 ± 12.5"},
      {"binder": "B6", "Kd": "56.5 ± 11.5"},
      {"binder": "B7", "Kd": "~102"},
      {"binder": "B8", "Kd": "99 ± 21"},
      {"binder": "B9", "Kd": "88 ± 25"},
      {"binder": "B10", "Kd": "59.5 ± 7"},
      {"binder": "B11", "Kd": "72.5 ± 14.5"},
      {"binder": "B12", "Kd": "39 ± 4"},
      {"binder": "B13", "Kd": "19 ± 2.45"},
      {"binder": "B14", "Kd": "88 ± 17.5"},
      {"binder": "B15", "Kd": "72.5 ± 11"},
      {"binder": "B16", "Kd": "34.2 ± 3.35"},
      {"binder": "B17", "Kd": "21.6 ± 2.7"},
      {"binder": "B18", "Kd": "61.5 ± 14.5"},
      {"binder": "B19", "Kd": "52 ± 12.5"},
      {"binder": "B20", "Kd": "37 ± 5.5"},
      {"binder": "B21", "Kd": "74.5 ± 11.5"},
      {"binder": "B22", "Kd": "88 ± 16.5"},
      {"binder": "B23", "Kd": "55.5 ± 10.5"},
      {"binder": "B24", "Kd": "19.4 ± 2.45"},
      {"binder": "B25", "Kd": "68.5 ± 19"},
      {"binder": "B26", "Kd": "9.2 ± 0.8"},
      {"binder": "B27", "Kd": "36 ± 5"},
      {"binder": "B28", "Kd": "6.95 ± 0.6"},
      {"binder": "B29", "Kd": "59 ± 13"},
      {"binder": "B30", "Kd": "43.5 ± 6"},
      {"binder": "B31", "Kd": "55 ± 6"},
      {"binder": "B32", "Kd": "6.3 ± 0.4"},
      {"binder": "B33", "Kd": "47 ± 7"}
    ]}
  ]
}
